No end group written: not given here.
Assay: Ex vivo half-life of mouse OCN in plasma
Type: in vitro ADME
Settings: 100 ng/ml
Protocol: The mouse OCN ex vivo half-life assays were performed with fresh plasma (lithium heparin) collected from four independent Bglap-/- mice. Glycosylated OCN produced in HEK293 cells and non-glycosylated OCN, produced in bacteria as previously described ([Ferron et al., 2012]), were incubated at 100 ng/ml in plasma at 37°C and OCN level was measured at indicated time points using the total mouse OCN ELISA assay described previously ([Ferron et al., 2010b]). […] The detection antibody is a goat polyclonal antibody directed against the C-terminal region (amino acids 26 to 46) of mouse OCN (anti-CTERM OCN). This assay detects with the same sensitivity glycosylated and non-glycosylated mouse OCN at concentration of 50 ng/ml or less (Figure 3—figure supplement 2). Therefore, all samples were diluted to be in this range before being measured by the ELISA. Human OCN half-life assay was performed ex vivo using Bglap-/- mice plasma and human OCN at 60 ng/ml. Human OCN level was measured at different time point using the human ucOCN ELISA described above. At the experiment start point (T0), an aliquot of plasma was diluted in ELISA assay buffer and kept on ice for OCN measurements. In some experiments, plasma was heat-inactivated for 30 min at 56°C, or treated with EDTA (10 mM, Wisent), phenylmethylsulfonyl fluoride (PMSF, 10 mM, Sigma), pepstatin A (Pep A, 10 μM, Sigma) which inhibits aspartic proteases (pepsin, cathepsin D, renin, chymosin), RVKR (Dec-RVKR-CMK, 50 μM; Tocris) or talabostat (10 mM; Tocris). Results are calculated in percentage relative to the initial concentration of non-glycosylated and glycosylated OCN respectively.

ucOCN: Non-glycosylated uncarboxylated mouse osteocalcin produced in bacteria (YLGASVPSPDPLEPTREQCELNPACDELSDQYGLKTAYKRIYGITI; ends and bridges not checked; cysteine pairing not given here; UniProt P86546 50-95, looked up)
stability in saline solution containing 3.5% BSA (37°C, 2 hr, ELISA): stable
% OCN from initial (Bglap-/- mouse plasma, 37°C, 0 min, ELISA, replicate 1): 100.0%
% OCN from initial (Bglap-/- mouse plasma, 37°C, 0 min, ELISA, replicate 2): 100.0%
% OCN from initial (Bglap-/- mouse plasma, 37°C, 0 min, ELISA, replicate 3): 100.0%
% OCN from initial (Bglap-/- mouse plasma, 37°C, 15 min, ELISA, replicate 1): 87.1%
% OCN from initial (Bglap-/- mouse plasma, 37°C, 15 min, ELISA, replicate 2): 96.1%
% OCN from initial (Bglap-/- mouse plasma, 37°C, 15 min, ELISA, replicate 3): 88.6%
% OCN from initial (Bglap-/- mouse plasma, 37°C, 30 min, ELISA, replicate 1): 81.2%
% OCN from initial (Bglap-/- mouse plasma, 37°C, 30 min, ELISA, replicate 2): 85.3%
% OCN from initial (Bglap-/- mouse plasma, 37°C, 30 min, ELISA, replicate 3): 89.8%
% OCN from initial (Bglap-/- mouse plasma, 37°C, 60 min, ELISA, replicate 1): 73.3%
% OCN from initial (Bglap-/- mouse plasma, 37°C, 60 min, ELISA, replicate 2): 71.4%
% OCN from initial (Bglap-/- mouse plasma, 37°C, 60 min, ELISA, replicate 3): 69.0%
% OCN from initial (Bglap-/- mouse plasma, 37°C, 90 min, ELISA, replicate 1): 67.3%
% OCN from initial (Bglap-/- mouse plasma, 37°C, 90 min, ELISA, replicate 2): 65.7%
% OCN from initial (Bglap-/- mouse plasma, 37°C, 90 min, ELISA, replicate 3): 66.9%
% OCN from initial (Bglap-/- mouse plasma, 37°C, 120 min, ELISA, replicate 1): 60.1%
% OCN from initial (Bglap-/- mouse plasma, 37°C, 120 min, ELISA, replicate 2): 56.6%
% OCN from initial (Bglap-/- mouse plasma, 37°C, 120 min, ELISA, replicate 3): 51.9%
% OCN from initial (Bglap-/- mouse plasma, 37°C, 180 min, ELISA, replicate 1): 51.9%
% OCN from initial (Bglap-/- mouse plasma, 37°C, 180 min, ELISA, replicate 2): 46.9%
% OCN from initial (Bglap-/- mouse plasma, 37°C, 180 min, ELISA, replicate 3): 43.8%
% OCN from initial (Bglap-/- mouse plasma, 37°C, 300 min, ELISA, replicate 1): 36.9%
% OCN from initial (Bglap-/- mouse plasma, 37°C, 300 min, ELISA, replicate 2): 36.3%
% OCN from initial (Bglap-/- mouse plasma, 37°C, 300 min, ELISA, replicate 3): 30.7%
% OCN from initial (Figure 3D, Bglap-/- mouse plasma, 2hrs, 4°C, Not HI, ELISA, replicate 1): 108.8%
% OCN from initial (Figure 3D, Bglap-/- mouse plasma, 2hrs, 4°C, Not HI, ELISA, replicate 2): 99.4%
% OCN from initial (Figure 3D, Bglap-/- mouse plasma, 2hrs, 4°C, Not HI, ELISA, replicate 3): 94.3%
% OCN from initial (Figure 3D, Bglap-/- mouse plasma, 2hrs, 37°C, HI (heat-inactivated plasma), ELISA, replicate 1): 108.8%
% OCN from initial (Figure 3D, Bglap-/- mouse plasma, 2hrs, 37°C, HI (heat-inactivated plasma), ELISA, replicate 2): 108.9%
% OCN from initial (Figure 3D, Bglap-/- mouse plasma, 2hrs, 37°C, HI (heat-inactivated plasma), ELISA, replicate 3): 82.4%
% OCN from initial (Figure 3D, Bglap-/- mouse plasma, 2hrs, 37°C, Not HI, ELISA, replicate 1): 34.6%
% OCN from initial (Figure 3D, Bglap-/- mouse plasma, 2hrs, 37°C, Not HI, ELISA, replicate 2): 23.3%
% OCN from initial (Figure 3D, Bglap-/- mouse plasma, 2hrs, 37°C, Not HI, ELISA, replicate 3): 37.9%
% OCN from initial (Figure 3D, Bglap-/- mouse plasma, T0, ELISA, replicate 1): 101.3%
% OCN from initial (Figure 3D, Bglap-/- mouse plasma, T0, ELISA, replicate 2): 100.0%
% OCN from initial (Figure 3D, Bglap-/- mouse plasma, T0, ELISA, replicate 3): 98.7%
% OCN from initial (Figure 3 supplement 3A, 3.5% BSA in saline solution, 2 hours at 37 °C, replicate 1): 108.8%
% OCN from initial (Figure 3 supplement 3A, 3.5% BSA in saline solution, 2 hours at 37 °C, replicate 2): 110.0%
% OCN from initial (Figure 3 supplement 3A, 3.5% BSA in saline solution, 2 hours at 37 °C, replicate 3): 106.2%
% OCN from initial (Figure 3 supplement 3A, Bglap-/- mouse plasma, 4°C, T=2hours, replicate 1): 94.9%
% OCN from initial (Figure 3 supplement 3A, Bglap-/- mouse plasma, 4°C, T=2hours, replicate 2): 99.7%
% OCN from initial (Figure 3 supplement 3A, Bglap-/- mouse plasma, 4°C, T=2hours, replicate 3): 100.1%
% OCN from initial (Figure 3 supplement 3A, Bglap-/- mouse plasma, 2 hours at 37 °C, Pepstatin A (10uM), replicate 1): 52.2%
% OCN from initial (Figure 3 supplement 3A, Bglap-/- mouse plasma, 2 hours at 37 °C, Pepstatin A (10uM), replicate 2): 57.4%
% OCN from initial (Figure 3 supplement 3A, Bglap-/- mouse plasma, 2 hours at 37 °C, Pepstatin A (10uM), replicate 3): 69.1%
% OCN from initial (Figure 3 supplement 3A, Bglap-/- mouse plasma, 2 hours at 37 °C, RVKR (50uM), replicate 1): 56.2%
% OCN from initial (Figure 3 supplement 3A, Bglap-/- mouse plasma, 2 hours at 37 °C, RVKR (50uM), replicate 2): 66.8%
% OCN from initial (Figure 3 supplement 3A, Bglap-/- mouse plasma, 2 hours at 37 °C, RVKR (50uM), replicate 3): 78.0%
% OCN from initial (Figure 3 supplement 3A, Bglap-/- mouse plasma, 2 hours at 37 °C, vehicle (V), replicate 1): 48.4%
% OCN from initial (Figure 3 supplement 3A, Bglap-/- mouse plasma, 2 hours at 37 °C, vehicle (V), replicate 2): 65.6%
% OCN from initial (Figure 3 supplement 3A, Bglap-/- mouse plasma, 2 hours at 37 °C, vehicle (V), replicate 3): 67.2%
% OCN from initial (Figure 3 supplement 3A, Bglap-/- mouse plasma, T0, replicate 1): 107.3%
% OCN from initial (Figure 3 supplement 3A, Bglap-/- mouse plasma, T0, replicate 2): 96.2%
% OCN from initial (Figure 3 supplement 3A, Bglap-/- mouse plasma, T0, replicate 3): 96.6%
% OCN from initial (Figure 3 supplement 3B, Bglap-/- mouse plasma, 4°C, T=2hours, replicate 1): 108.8%
% OCN from initial (Figure 3 supplement 3B, Bglap-/- mouse plasma, 4°C, T=2hours, replicate 2): 99.4%
% OCN from initial (Figure 3 supplement 3B, Bglap-/- mouse plasma, 4°C, T=2hours, replicate 3): 94.3%
% OCN from initial (Figure 3 supplement 3B, Bglap-/- mouse plasma, 2 hours at 37 °C, 10 mM EDTA, replicate 1): 37.4%
% OCN from initial (Figure 3 supplement 3B, Bglap-/- mouse plasma, 2 hours at 37 °C, 10 mM EDTA, replicate 2): 24.3%
% OCN from initial (Figure 3 supplement 3B, Bglap-/- mouse plasma, 2 hours at 37 °C, 10 mM EDTA, replicate 3): 37.4%
% OCN from initial (Figure 3 supplement 3B, Bglap-/- mouse plasma, 2 hours at 37 °C, vehicle (V), replicate 1): 34.6%
% OCN from initial (Figure 3 supplement 3B, Bglap-/- mouse plasma, 2 hours at 37 °C, vehicle (V), replicate 2): 23.3%
% OCN from initial (Figure 3 supplement 3B, Bglap-/- mouse plasma, 2 hours at 37 °C, vehicle (V), replicate 3): 37.9%
% OCN from initial (Figure 3 supplement 3B, Bglap-/- mouse plasma, T0, replicate 1): 101.3%
% OCN from initial (Figure 3 supplement 3B, Bglap-/- mouse plasma, T0, replicate 2): 100.0%
% OCN from initial (Figure 3 supplement 3B, Bglap-/- mouse plasma, T0, replicate 3): 98.7%
half-life in plasma ex vivo (fresh Bglap-/- mouse plasma (lithium heparin), 37°C, total mouse OCN ELISA, n = 4 plasma): ~ 120 min
